Results taken from the supplement of paper PMC9112550, “Optimization of the antimicrobial peptide Bac7 by deep mutational scanning” (BMC Biology, 2022).

Tested on: Escherichia coli TOP10
Experiment: shrunken log2 fold change of peptide-encoding DNA abundance (4.5 h post-induction vs induction); higher = less antimicrobial activity (less host growth inhibition)
Conditions: time post-induction: 4.5 h; library: site-saturation at positions 5, 18, 19, 20
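Note: peptides expressed intracellularly from a pBAD plasmid library in pooled LB shake-flask culture, induced with 0.3% L-arabinose, DNA abundance read by NGS, three biological replicates, DESeq2 with apeglm shrinkage.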

Row | Sequence | shrunken log2 fold change
1 | RRIRFRPPRLPRPRPRPFPHPRP | -0.142
2 | RRIRYRPPRLPRPRPRPTIKPRP | -0.151
3 | RRIRSRPPRLPRPRPRPFCNPRP | -0.106
4 | RRIRQRPPRLPRPRPRPFYQPRP | -0.104
5 | RRIRVRPPRLPRPRPRPTKTPRP | 0.0337
6 | RRIRFRPPRLPRPRPRPKWCPRP | -0.183
7 | RRIRARPPRLPRPRPRPKMWPRP | 0.553
8 | RRIRSRPPRLPRPRPRPDYVPRP | 0.063
9 | RRIRHRPPRLPRPRPRPMRIPRP | -0.00172
10 | RRIRPRPPRLPRPRPRPEFTPRP | 0.26
11 | RRIRERPPRLPRPRPRPVFKPRP | -0.228
12 | RRIRERPPRLPRPRPRPGKEPRP | 0.0125
13 | RRIRQRPPRLPRPRPRPSFNPRP | -0.48
14 | RRIRRRPPRLPRPRPRPWCKPRP | -0.0285
15 | RRIRNRPPRLPRPRPRPYYEPRP | -0.793
16 | RRIRQRPPRLPRPRPRPKMHPRP | 0.127
17 | RRIRNRPPRLPRPRPRPGDVPRP | -0.0732
18 | RRIRCRPPRLPRPRPRPEGYPRP | 0.461
19 | RRIRMRPPRLPRPRPRPSAYPRP | 0.319
20 | RRIRFRPPRLPRPRPRPIYMPRP | -0.878
21 | RRIRHRPPRLPRPRPRPHPCPRP | -0.612
22 | RRIRRRPPRLPRPRPRPHIGPRP | -0.155
23 | RRIRMRPPRLPRPRPRPLYVPRP | -0.111
24 | RRIRPRPPRLPRPRPRPMARPRP | 0.154
25 | RRIRRRPPRLPRPRPRPKELPRP | 0.166

Row | Sequence | shrunken log2 fold change
26 | RRIRWRPPRLPRPRPRPHATPRP | 0.816
27 | RRIRERPPRLPRPRPRPNPPPRP | 0.181
28 | RRIRVRPPRLPRPRPRPRELPRP | -0.0137
29 | RRIRVRPPRLPRPRPRPTSNPRP | -0.296
30 | RRIRSRPPRLPRPRPRPKAVPRP | 0.255
31 | RRIRRRPPRLPRPRPRPWTAPRP | -0.106
32 | RRIRLRPPRLPRPRPRPNTHPRP | -0.473
33 | RRIRERPPRLPRPRPRPSGYPRP | -0.0887
34 | RRIRKRPPRLPRPRPRPSTSPRP | -0.0896
35 | RRIRTRPPRLPRPRPRPTECPRP | -0.0493
36 | RRIRLRPPRLPRPRPRPTLHPRP | 0.18
37 | RRIRFRPPRLPRPRPRPYNVPRP | -0.138
38 | RRIRMRPPRLPRPRPRPVCPPRP | 0.0129
39 | RRIRERPPRLPRPRPRPRGHPRP | 0.0666
40 | RRIRHRPPRLPRPRPRPAWSPRP | -0.0185
41 | RRIRARPPRLPRPRPRPTQLPRP | 0.611
42 | RRIRSRPPRLPRPRPRPHLVPRP | -0.118
43 | RRIRTRPPRLPRPRPRPTILPRP | -0.453
44 | RRIRYRPPRLPRPRPRPTGCPRP | -0.0275
45 | RRIRDRPPRLPRPRPRPERAPRP | 0.0972
46 | RRIRARPPRLPRPRPRPCLNPRP | -0.424
47 | RRIRIRPPRLPRPRPRPITCPRP | -0.378
48 | RRIRMRPPRLPRPRPRPKSTPRP | 1.44
49 | RRIRDRPPRLPRPRPRPYNPPRP | -0.309
50 | RRIRWRPPRLPRPRPRPHRMPRP | -0.203

Row | Sequence | shrunken log2 fold change
51 | RRIRRRPPRLPRPRPRPVQFPRP | 0.0855
52 | RRIRNRPPRLPRPRPRPVKEPRP | -0.0182
53 | RRIRPRPPRLPRPRPRPCDFPRP | -0.179
54 | RRIRVRPPRLPRPRPRPEGFPRP | 0.0396
55 | RRIRERPPRLPRPRPRPMTIPRP | -0.155
56 | RRIRQRPPRLPRPRPRPCMVPRP | -0.0725
57 | RRIRPRPPRLPRPRPRPVSWPRP | 0.704
58 | RRIRFRPPRLPRPRPRPMDWPRP | 0.314
59 | RRIRKRPPRLPRPRPRPFNWPRP | 0.00115
60 | RRIRSRPPRLPRPRPRPHMDPRP | -0.427
61 | RRIRPRPPRLPRPRPRPIFWPRP | 1.25
62 | RRIRARPPRLPRPRPRPSHQPRP | -0.138
63 | RRIRARPPRLPRPRPRPNFMPRP | 0.186
64 | RRIRARPPRLPRPRPRPPQYPRP | 0.33
65 | RRIRGRPPRLPRPRPRPVIEPRP | 0.599
66 | RRIRKRPPRLPRPRPRPFQEPRP | 0.149
67 | RRIRVRPPRLPRPRPRPLVAPRP | 0.196
68 | RRIRCRPPRLPRPRPRPGSWPRP | 0.439
69 | RRIRNRPPRLPRPRPRPMPIPRP | -0.0173
70 | RRIRNRPPRLPRPRPRPPANPRP | 0.262
71 | RRIRCRPPRLPRPRPRPTTMPRP | 0.722
72 | RRIRKRPPRLPRPRPRPVQSPRP | 0.00205
73 | RRIRHRPPRLPRPRPRPTIEPRP | -0.0518
74 | RRIRPRPPRLPRPRPRPGCWPRP | 0.621
75 | RRIRWRPPRLPRPRPRPKEHPRP | 0.126

Row | Sequence | shrunken log2 fold change
76 | RRIRMRPPRLPRPRPRPVGVPRP | 0.806
77 | RRIRDRPPRLPRPRPRPQPQPRP | 0.517
78 | RRIRMRPPRLPRPRPRPLKYPRP | -0.0456
79 | RRIRCRPPRLPRPRPRPMCWPRP | 0.0297
80 | RRIRQRPPRLPRPRPRPRWEPRP | 0.0653
81 | RRIRSRPPRLPRPRPRPNECPRP | -0.136
82 | RRIRIRPPRLPRPRPRPLDGPRP | 0.0631
83 | RRIRVRPPRLPRPRPRPIDWPRP | 0.224
84 | RRIRIRPPRLPRPRPRPWKNPRP | -0.235
85 | RRIRLRPPRLPRPRPRPLSWPRP | 0.0186
86 | RRIRKRPPRLPRPRPRPLDLPRP | -0.203
87 | RRIRYRPPRLPRPRPRPPYEPRP | -0.0831
88 | RRIRERPPRLPRPRPRPMDMPRP | -0.189
89 | RRIRVRPPRLPRPRPRPFFQPRP | -0.0276
90 | RRIRVRPPRLPRPRPRPNSVPRP | -0.00107
91 | RRIRQRPPRLPRPRPRPFITPRP | -0.569
92 | RRIRSRPPRLPRPRPRPPHDPRP | 0.277
93 | RRIRTRPPRLPRPRPRPYPDPRP | -0.0217
94 | RRIRIRPPRLPRPRPRPFCYPRP | -0.514
95 | RRIRLRPPRLPRPRPRPYNTPRP | -0.806
96 | RRIRKRPPRLPRPRPRPGSGPRP | 0.708
97 | RRIRTRPPRLPRPRPRPYFQPRP | -0.587
98 | RRIRVRPPRLPRPRPRPNHKPRP | -0.292
99 | RRIRWRPPRLPRPRPRPYISPRP | -0.816
100 | RRIRGRPPRLPRPRPRPYICPRP | -0.423

Row | Sequence | shrunken log2 fold change
101 | RRIRQRPPRLPRPRPRPRINPRP | -0.184
102 | RRIRLRPPRLPRPRPRPSKYPRP | -0.578
103 | RRIRKRPPRLPRPRPRPDAPPRP | 1.46
104 | RRIRWRPPRLPRPRPRPCEFPRP | -0.0211
105 | RRIRIRPPRLPRPRPRPHHNPRP | -0.0464
106 | RRIRDRPPRLPRPRPRPCDRPRP | -0.0944
107 | RRIRPRPPRLPRPRPRPWFKPRP | -0.125
108 | RRIRFRPPRLPRPRPRPKLKPRP | 0.0386
109 | RRIRFRPPRLPRPRPRPTRSPRP | 0.189
110 | RRIRWRPPRLPRPRPRPYYWPRP | -1.31
111 | RRIRTRPPRLPRPRPRPLEKPRP | 0.419
112 | RRIRFRPPRLPRPRPRPDCKPRP | 0.154
113 | RRIRYRPPRLPRPRPRPNKNPRP | -0.935
114 | RRIRPRPPRLPRPRPRPDTDPRP | -0.158
115 | RRIRVRPPRLPRPRPRPVDMPRP | 0.00782
116 | RRIRMRPPRLPRPRPRPYNFPRP | -0.363
117 | RRIRTRPPRLPRPRPRPVRYPRP | -0.028
118 | RRIRARPPRLPRPRPRPHSLPRP | 0.314
119 | RRIRERPPRLPRPRPRPSRQPRP | -0.214
120 | RRIRFRPPRLPRPRPRPNGIPRP | -0.286
121 | RRIRKRPPRLPRPRPRPCFSPRP | -0.51
122 | RRIRHRPPRLPRPRPRPHFDPRP | -0.107
123 | RRIRLRPPRLPRPRPRPRVQPRP | -0.143
124 | RRIRTRPPRLPRPRPRPTLDPRP | 0.249
125 | RRIRGRPPRLPRPRPRPLTMPRP | 0.763
